Here are results for 4 molecules from patent US20230242646A1 (JJP BIOLOGICS SP Z O O, published 2023).

Experiment [1] has as its target T1, recombinant C-terminal polyhistidine-tagged human (extracellular) CD89 (Sino Biological) (human, UniProt P24071 22-227).
T1 construct: extracellular domain; bought protein; also called rhuCD89; soluble monomeric rhuCD89
The experiment is described as follows: ELISA, antibody before serum IgA on coated rhuCD89; IgA detected. A general note: An ELISA detects its analyte on a solid surface through an enzyme-linked reagent.
Method: After extensive washing with PBS/0.05% Tween 20, plates were blocked with PBS/0.05% Tween 20/1% BSA (Roche) for 1 hour at RT. Subsequently, plates were incubated with 25 µL titrated (in block buffer) purified mouse anti-human CD89 antibody/well for 30 minutes at RT. […] After extensive washing in PBS/0.05% Tween 20, 1:10,000 diluted HRP-conjugated streptavidin (Jackson ImmunoResearch) was added, and incubated for 1 hour at RT, followed by a ready-to-use solution of TMB substrate (Invitrogen) for colorimetric detection.

Experiment [2] concerns the target T2, chimeric human/cynomolgus monkey CD89-II on HEK293F cells (human/cynomolgus chimera, UniProt P24071 22-287).
T2 construct: also called dIle47 - Ile71 human EC1-CD89; II (47-71)
T2 chain: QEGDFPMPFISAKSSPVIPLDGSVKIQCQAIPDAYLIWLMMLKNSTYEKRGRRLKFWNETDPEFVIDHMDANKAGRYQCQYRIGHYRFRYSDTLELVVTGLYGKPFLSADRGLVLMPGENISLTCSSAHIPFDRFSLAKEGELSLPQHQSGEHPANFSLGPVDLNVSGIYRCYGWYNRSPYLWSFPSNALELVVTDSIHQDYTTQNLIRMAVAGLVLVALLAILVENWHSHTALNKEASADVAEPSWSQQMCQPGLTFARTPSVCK
The experiment is described as follows: FACS, transiently transfected HEK293F. (A flow cytometer gives signals particle by particle.)
Method: (§1) To this end, transient transfected HEK293F cells were put at 10 × 10⁶ cells/mL in ice-chilled phosphate-buffered saline containing 0.1% BSA (Sigma)/0.05% NaN₃ (PBS/BSA/NaN₃) supplemented with 50 µg/mL human IgGs (blocking FcY receptors; Sigma) for 10 minutes at 4° C. Then, 10 µL/tube (i.e., 0.1 × 10⁶ cells) of these cells were incubated with or without 100 µL purified mouse anti-human CD89 antibody at 10 µg/mL (in PBS/BSA/NaN₃) for 30 minutes at 4° C. […] After extensive washing in PBS/BSA/NaN₃, cells were subsequently incubated with 1:200 diluted PE-conjugated goat anti-mouse IgG Fcy-specific antibodies (Jackson ImmunoResearch) for 30 minutes at 4° C. After extensive washing in PBS/BSA/NaN₃, cells were fixed in 2% formaldehyde in PBS/BSA/NaN₃ for 30 minutes at 4° C.

In experiment [3] the target is T3, membrane-bound full-length human CD89 on HEK293F cells (human, UniProt P24071 22-287).
T3 construct: 2 or transient transfectants; also called membrane human CD89; human FcaRI
The experiment is described as follows: FACS HEK293F-huCD89.
Method: After extensive washing in PBS/BSA/NaN₃, cells were subsequently incubated with 1:200 diluted PE-conjugated goat anti-human IgG Fcy-specific antibodies (Jackson ImmunoResearch) for 30 minutes at 4° C. After extensive washing in PBS/BSA/NaN₃, cells were fixed in 2% formaldehyde in PBS/BSA/NaN₃ for 30 minutes at 4° C.

In experiment [4] the target is T4, chimeric bovine EC1-Fcgamma2R/human EC2-CD89 on HEK293F cells (bovine/human chimera).
T4 chain: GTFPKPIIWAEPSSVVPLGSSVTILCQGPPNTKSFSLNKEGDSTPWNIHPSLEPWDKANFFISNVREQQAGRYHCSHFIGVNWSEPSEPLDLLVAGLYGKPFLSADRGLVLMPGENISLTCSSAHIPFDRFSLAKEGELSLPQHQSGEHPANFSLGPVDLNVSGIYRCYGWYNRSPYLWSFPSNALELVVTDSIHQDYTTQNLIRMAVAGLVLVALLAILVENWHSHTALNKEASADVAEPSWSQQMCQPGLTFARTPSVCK
The experiment is described as follows: FACS, transiently transfected HEK293F.
Method: To this end, transient transfected HEK293F cells were put at 10 × 10⁶ cells/mL in ice-chilled phosphate-buffered saline containing 0.1% BSA (Sigma)/0.05% NaN₃ (PBS/BSA/NaN₃) supplemented with 50 µg/mL human IgGs (blocking Fcy receptors; Sigma) for 10 minutes at 4° C. Then, 10 µL/tube (i.e., 0.1 × 10⁶ cells) of these cells were incubated with or without 100 µL purified mouse anti-human CD89 antibody at 10 µg/mL (in PBS/BSA/NaN₃) for 30 minutes at 4° C. […] After extensive washing in PBS/BSA/NaN₃, cells were subsequently incubated with 1:200 diluted PE-conjugated goat anti-mouse IgG Fcy-specific antibodies (Jackson ImmunoResearch) for 30 minutes at 4° C. After extensive washing in PBS/BSA/NaN₃, cells were fixed in 2% formaldehyde in PBS/BSA/NaN₃ for 30 minutes at 4° C.

In experiment [5] the target is T3, membrane-bound full-length human CD89 …. In words: FACS on HEK293F-huCD89.
Method: Then, 10 µL/tube (i.e., 0.1 x 10⁶ cells) of these cells were incubated with 100 µL titrated (in PBS/BSA/NaN₃) purified mouse anti-human CD89 antibody/tube for 30 minutes at 4° C. […] After extensive washing in PBS/BSA/NaN₃, cells were subsequently incubated with 1:200 diluted PE-conjugated goat anti-mouse IgG Fcy-specific antibodies (Jackson ImmunoResearch) for 30 minutes at 4° C. After extensive washing in PBS/BSA/NaN₃, cells were fixed in 2% formaldehyde in PBS/BSA/NaN₃ for 30 minutes at 4° C.
The target in experiment [6] is T5, chimeric human/cynomolgus monkey CD89-I on HEK293F cells (human/cynomolgus chimera, UniProt P24071 22-287).
T5 construct: also called dGln22 - Lys46 human EC1-CD89; I (22-46)
T5 chain: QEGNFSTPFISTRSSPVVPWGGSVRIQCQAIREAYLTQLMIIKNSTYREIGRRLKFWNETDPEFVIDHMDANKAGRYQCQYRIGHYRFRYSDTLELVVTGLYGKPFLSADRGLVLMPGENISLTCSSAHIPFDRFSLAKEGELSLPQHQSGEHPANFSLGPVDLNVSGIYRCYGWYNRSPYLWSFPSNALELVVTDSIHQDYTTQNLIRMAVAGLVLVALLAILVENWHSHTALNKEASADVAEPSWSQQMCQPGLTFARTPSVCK
In words: FACS, 10 µg/mL, transiently transfected HEK293F.
Method: as §1

Experiment [7] has as its target T6, chimeric human/cynomolgus monkey CD89-IV on HEK293F cells (human/cynomolgus chimera, UniProt P24071 22-287).
T6 construct: also called dArg97 - Gly121 human EC1-CD89
T6 chain: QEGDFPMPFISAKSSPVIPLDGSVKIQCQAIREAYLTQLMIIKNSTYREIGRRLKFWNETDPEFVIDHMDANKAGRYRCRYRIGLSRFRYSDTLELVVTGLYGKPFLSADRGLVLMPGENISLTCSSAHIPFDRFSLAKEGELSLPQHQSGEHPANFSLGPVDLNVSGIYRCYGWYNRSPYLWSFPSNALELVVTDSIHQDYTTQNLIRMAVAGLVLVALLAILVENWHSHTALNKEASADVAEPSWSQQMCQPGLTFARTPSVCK
In words: FACS, 10 µg/mL, transiently transfected HEK293F.
Method: as §1

Experiment [8] has as its target T7, chimeric human/cynomolgus monkey CD89-III on HEK293F cells (human/cynomolgus chimera, UniProt P24071 22-287).
T7 construct: also called dGly72 - Gly96 human EC1-CD89; III (72-96)
T7 chain: T6 chain with G51D, R52E, R53K, K55G, E59D, D61T, R78Q, R80Q, L85H, S86Y
The experiment is described as follows: FACS, 10 µg/mL, transiently transfected HEK293F.
Method: as §1

Experiment [9] deals with T8, chimeric human/cynomolgus monkey CD89-hotspots on HEK293F cells (human/cynomolgus chimera, UniProt P24071 22-287).
T8 construct: also called dThr58, Gln59; dArg73, Arg74, Lys76
T8 chain: T6 chain with T37I, Q38W, R52E, R53K, K55G, R78Q, R80Q
In words: FACS, 10 µg/mL, transiently transfected HEK293F.
Method: as §1

In experiment [10] the target is T3, membrane-bound full-length human CD89 …. In words: FACS HEK293F-huCD89, 10 ug/mL; competitor PE-A59.
Method: (§2) Then, 10 µL/tube (i.e., 0.1 × 10⁶ cells) of these cells were incubated with or without 100 µL purified mouse anti-human CD89 antibody at 10 µg/mL (in PBS/BSA/NaN₃) for 30 minutes at 4° C. […] After extensive washing in PBS/BSA/NaN₃, cells were fixed in 2% formaldehyde in PBS/BSA/NaN₃ for 30 minutes at 4° C.
Experiment [11] deals with T1, recombinant C-terminal …. In words: ELISA, coated rhuCD89.
Method: After extensive washing with PBS/0.05% Tween 20, plates were blocked with PBS/0.05% Tween 20/1% BSA (Roche) for 1 hour at RT. Subsequently, plates were incubated with 50 µL titrated (in block buffer) purified mouse anti-human CD89 antibody/well for 1 hour at RT. […] After extensive washing in PBS/0.05% Tween 20, binding of antibodies on rhuCD89 was determined with 1:5,000 diluted horseradish peroxidase (HRP)-conjugated goat anti-mouse IgG Fcy-specific antibodies (Jackson ImmunoResearch) for 1 hour at RT, followed by a ready-to-use solution of TMB substrate (Invitrogen) for colorimetric detection.
After extensive washing with PBS/0.05% Tween 20, plates were blocked with PBS/0.05% Tween 20/1% BSA (Roche) for 1 hour at RT. […] After extensive washing in PBS/0.05% Tween 20, binding of antibodies on rhuCD89 was determined with 1:5,000 diluted horseradish peroxidase (HRP)-conjugated goat anti-human IgG Fcy-specific antibodies (Jackson ImmunoResearch) for 1 hour at RT, followed by a ready-to-use solution of TMB substrate (Invitrogen) for colorimetric detection.
Experiment [12] deals with membrane human CD89 on ex vivo primary human neutrophilic granulocytes or monocytic U937 cells (human, UniProt P24071 22-287). The experiment is described as follows: cell-based or functional assay.
Experiment [13] has as its target T3, membrane-bound full-length human CD89 …. The experiment is described as follows: FACS, antibody before serum IgA on HEK293F-huCD89; IgA detected.
Method: Then, 10 µL/tube (i.e., 0.1 x 10⁶ cells) of these cells were incubated with 50 µL titrated (in PBS/BSA/NaN₃) purified mouse anti-human CD89 antibody/tube for 30 minutes at 4° C. […] After extensive washing in PBS/BSA/NaN₃, 1:200 diluted PE-conjugated streptavidin (Jackson ImmunoResearch) was added, and incubated for 30 minutes at 4° C. After extensive washing in PBS/BSA/NaN₃, cells were fixed in 2% formaldehyde in PBS/BSA/NaN₃ for 30 minutes at 4° C.
For experiment [14] the target is unchanged. The experiment is described as follows: FACS, unlabelled antibody before MIP8a-PE on HEK293F-huCD89.
The target is the same in experiment [15]. In words: FACS, antibody before secretory IgA on HEK293F-huCD89; IgA detected.
Method: Then, 10 µL/tube (i.e., 0.1 x 10⁶ cells) of these cells were incubated with or without 50 µL titrated (in PBS/BSA/NaN₃) purified mouse anti-human CD89 antibody/tube for 30 minutes at 4° C. […] After extensive washing in PBS/BSA/NaN₃, 1:200 diluted PE-conjugated streptavidin (Jackson ImmunoResearch) was added, and incubated for 30 minutes at 4° C. After extensive washing in PBS/BSA/NaN₃, cells were fixed in 4% formaldehyde in PBS/BSA/NaN₃ for 30 minutes at 4° C.
Experiment [16] shares this target. The experiment is described as follows: FACS HEK293F-huCD89, 10 ug/mL; competitor PE-A3.
Method: as §2
For experiment [17] the target is unchanged. The experiment is described as follows: FACS HEK293F-huCD89, 10 ug/mL; competitor PE-MIP8a.
Method: as §2
Experiment [18] addresses T9, membrane full-length cynomolgus monkey CD89 on HEK293F cells (cynomolgus monkey).
T9 construct: also called cynoCD89; cynomolgus EC1-CD89
T9 chain: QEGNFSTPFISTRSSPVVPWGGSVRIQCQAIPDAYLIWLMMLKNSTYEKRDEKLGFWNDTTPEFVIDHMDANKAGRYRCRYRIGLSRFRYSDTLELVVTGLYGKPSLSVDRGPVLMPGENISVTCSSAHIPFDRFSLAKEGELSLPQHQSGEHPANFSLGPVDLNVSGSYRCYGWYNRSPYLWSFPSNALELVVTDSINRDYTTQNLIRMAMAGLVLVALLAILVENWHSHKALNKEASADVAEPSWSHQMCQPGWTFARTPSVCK
The experiment is described as follows: FACS, transiently transfected HEK293F.

Experiment [19] deals with T3, membrane-bound full-length human CD89 …. The experiment is described as follows: FACS HEK293F-huCD89, supernatant.
Method: After extensive washing in PBS/BSA/NaN₃, cells were subsequently incubated with 1:200 diluted PE-conjugated goat anti-human IgG Fcγ-specific antibodies (Jackson ImmunoResearch) for 30 minutes at 4° C. After extensive washing in PBS/BSA/NaN₃, cells were fixed in 4% formaldehyde in PBS/BSA/NaN₃ for 30 minutes at 4° C.
Experiment [20] deals with T1, recombinant C-terminal …. The experiment is described as follows: ELISA, coated rhuCD89, supernatant.
Method: After extensive washing with PBS/0.05% Tween 20, plates were blocked with PBS/0.05% Tween 20/1% BSA (Roche) for 1 hour at RT. […] After extensive washing in PBS/0.05% Tween 20, binding of antibodies on rhuCD89 was determined with 1:5,000 diluted horseradish peroxidase (HRP)-conjugated goat anti-human IgG Fcγ-specific antibodies (Jackson ImmunoResearch) for 1 hour at RT, followed by a ready-to-use solution of TMB substrate (Invitrogen) for colorimetric detection. After adding 1 M HCL, binding (optical density) of antibodies on rhuCD89 was measured at wavelength of 450 nm (reference wavelength of 655 nm) using a microplate reader (Synergy HTX; BioTek).

Substitutions are numbered along the chain they refer to.

B1: CD89/IgA blocking mouse anti-human CD89-specific antibody 30C7 (antibody, V domains shown)
VH: QVQLQQSGPELVRPGVSVKISCKGSGYTFTDYVMHWVKQSHAKSLEWIGVISTYSGNTNYNQKFKGKATMTVDKSSSTAYMELARLTSEDSAIYYCARESDGYYFDYWGQGTTLTVSS
VL: DIVMSQSPSSLAVSAGEKVTMSCKSSQSLLNSRTRKNYLAWYQQKPGQSPKLLIYWASTRESGVPDRFTGSGSGTDFTLTISSVQAEDLAVYYCKQSYNLMYTFGGGTKLEIK
For the molecule B1, the “IC50 (read off the curve)” value in experiment [1] was approximately 0.1 µg/mL; in [13] it was approximately 0.6 µg/mL; in [14], approximately 1 µg/mL; in experiment [15], approximately 1 µg/mL. The binding result is on record as “no binding (tested: 10 µg/mL)” in experiment [2]; “no binding (tested: 10 µg/mL)” in [4]; “binds” in [6]; “binds” in [7]; “binds” in experiment [8]; “binds” in experiment [9]. Besides, the 50% effective concentration (EC50) – broadly, the concentration at which the effect is half-maximal – in [3] is 0.484 µg/mL; in experiment [11] it was 0.029 µg/mL. The EC50 (read off the curve) – broadly, the midpoint of the concentration-response curve – in experiment [5] was approximately 0.4 µg/mL. Further, the “% blocking of PE-A59 binding” value in [10] is less than 25%. The “IC50 (read off the bars), binding of granulocytes to plate-bound serum IgA [Donor 2]” value in experiment [12] is approximately 0.6 µg/mL. For the same molecule, the “% blocking of PE-A3 binding” value in experiment [16] is less than 25%. For the same molecule, the “% blocking of PE-MIP8a binding” value in experiment [17] is more than 90%.

B2: CD89/IgA blocking mouse anti-human CD89-specific antibody 20B4 (antibody, V domains shown)
VH: QVQLKESGPGLVAPSQSLSITCTVSGFSLTSYGVHWVRQPPGKGLEWLGIIWAGGSTSYNSALMSRLSISKDNSKSQVFLKMNSLQTDDTAMYYCARDHYDLFAYWGQGTLVTVSA
VL: DILMTQSPSSMSVSLGDTVSITCHASQDISRNIGWLQQKPGKSFKGLIYHGTNLEDGVPSRFSGSGSGADYSLTISSLESEDFADYYCVQYAQFPRTFGGGTKLEIK
Turning to B2, the binding result was “no binding (tested: 10 µg/mL)” in experiment [2]; “no binding (tested: 10 µg/mL)” in experiment [4]; “binds” in experiment [6]; “binds” in experiment [7]; “binds” in experiment [8]; “binds” in [9]. The binding result in [18] is reported as “no binding (tested: 10 µg/mL)”. Besides, the EC50 in experiment [3] is 0.26 µg/mL; in [11], 0.013 µg/mL. Besides, the “EC50 (read off the curve)” value in experiment [5] is approximately 0.2 µg/mL. Moreover, the “IC50 (read off the curve)” value in experiment [13] is approximately 0.3 µg/mL; in [15], approximately 0.4 µg/mL. Also, the “% blocking of PE-MIP8a binding” value in [17] is less than 25%.

B3: humanized IgG4/kappa anti-human CD89 monoclonal antibody 10E7 version VH3VL3 (antibody)
heavy: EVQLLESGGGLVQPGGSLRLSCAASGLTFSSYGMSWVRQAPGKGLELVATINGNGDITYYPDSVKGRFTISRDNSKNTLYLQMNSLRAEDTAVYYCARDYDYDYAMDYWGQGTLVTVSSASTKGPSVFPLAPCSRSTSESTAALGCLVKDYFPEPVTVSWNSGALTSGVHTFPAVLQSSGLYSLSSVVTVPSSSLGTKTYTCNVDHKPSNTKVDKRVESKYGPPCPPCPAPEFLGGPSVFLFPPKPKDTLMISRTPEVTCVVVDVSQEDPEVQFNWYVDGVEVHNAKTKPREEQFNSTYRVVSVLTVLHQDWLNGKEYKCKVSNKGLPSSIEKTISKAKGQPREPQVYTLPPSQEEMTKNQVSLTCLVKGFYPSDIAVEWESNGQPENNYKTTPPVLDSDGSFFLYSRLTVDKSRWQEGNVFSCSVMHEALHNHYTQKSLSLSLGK
light: DIQMTQSPSSLSASVGDRVTITCRASQDIINYLNWYQQKPGKAVKLLIYYTSRLHSGVPSRFSGSGSGTDYTLTISSLQPEDFATYYCQQGKTLPYTFGQGTKLEIKRTVAAPSVFIFPPSDEQLKSGTASVVCLLNNFYPREAKVQWKVDNALQSGNSQESVTEQDSKDSTYSLSSTLTLSKADYEKHKVYACEVTHQGLSSPVTKSFNRGEC
notes: tested as supernatant; signal peptide end derived as for m17
In the case of B3, the concentration for a half-maximal effect (EC50) in experiment [19] is approximately 1 µg/mL; in [20], approximately 0.02 µg/mL.

B4: humanized IgG4/kappa anti-human CD89 monoclonal antibody 10E7 version VH3VL4 (antibody)
heavy: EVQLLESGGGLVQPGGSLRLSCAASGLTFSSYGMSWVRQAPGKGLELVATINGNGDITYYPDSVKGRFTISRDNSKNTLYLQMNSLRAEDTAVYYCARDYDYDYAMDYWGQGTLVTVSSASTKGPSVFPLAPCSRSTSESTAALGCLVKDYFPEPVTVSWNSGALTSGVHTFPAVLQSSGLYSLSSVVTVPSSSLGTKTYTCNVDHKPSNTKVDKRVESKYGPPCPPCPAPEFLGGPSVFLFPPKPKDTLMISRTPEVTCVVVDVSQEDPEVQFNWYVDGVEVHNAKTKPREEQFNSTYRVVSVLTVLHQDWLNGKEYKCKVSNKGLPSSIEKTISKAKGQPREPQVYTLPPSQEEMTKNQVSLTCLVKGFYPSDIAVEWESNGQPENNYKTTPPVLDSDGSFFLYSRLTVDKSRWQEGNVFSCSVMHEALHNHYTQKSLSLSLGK
light: B3 light with A43T, Y87F
notes: as for B3
For B4, the results for the EC50 in experiment [19] and in experiment [20] were approximately 1 µg/mL and approximately 0.02 µg/mL, respectively.
